# Source: the RNAGym collection of RNA variant scans (doi:10.1073/pnas.2313332121)
# Fewer inactive variants are shown than the library holds.
# B1: TPR 5TU (parent)
# chain: GGAUCUUCUCGAUCUAACAAAAAAGACAAAUCUGCCACAAAGCUUGAGAGCAUCUUCGGAUGCAGAGGCGGCAGCCUUCGGUGGCGCGAUAGCGCCAACGUUCUCAACUAUGACACGCAAAACGCGUGCUCCGUUGAAUGGAGUUUAUCAUG
# Variants of: B1
# Test: polymerase ribozyme fitness, log enrichment relative to wild type (log ratio); higher = more active; in vitro selection for triplet polymerase activity
# Outline: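 A single round of triplicate in vitro selection, including frozen incubation at −7 °C, was applied to PCR-built, transcribed mutant libraries of each subunit of a heterodimeric triplet polymerase ribozyme. Illumina sequencing of input and output libraries retained genotypes with ≥10 input reads and ≥1 read per output. Fitness is the base-2 logarithm of genotype enrichment divided by wild-type enrichment, from inverse-variance-weighted replicate averages.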
row,Variant,polymerase ribozyme fitness (log ratio)
1,G50A U53A,-1.59
2,A47G G59A C103A C131U U134C,-2.12
3,A47U G71C G83A C118U,≤ -4.2
4,G50C G83C U135A,≤ -4.2
5,A49C A52U C132G,≤ -4.2
6,G50A U56A G62C C63A C96G,≤ -4.2
7,G50A C57A G58C U77C G88C U139A,≤ -4.2
8,G48C G62A,-3.59
9,G50A G94A C116G,-1.53
10,A49U G58U U78A C96G C103U U135A,≤ -4.2
11,A49U C75U U102G,-2.65
12,A49C A60G,-3.61
13,G48A C85U C96A C116G,-2.37
14,A49U U148C,-3.02
15,A49G A120U,-0.63
16,A49C C76G C95U C114A G143U,≤ -4.2
17,A47U G48U U55A U82G U134C,-3.1
18,A47G U55A G71U C85G C95U,≤ -4.2
19,A47G G94C,-0.418
20,A47G U145G,-0.0566
21,G48A C51A U56A G62C,-3.16

row,Variant,polymerase ribozyme fitness (log ratio)
1,A49C A52C G68U G84A G140A,≤ -4.2
2,A47U A97G C132U,-2.35
3,G48C G68A C79U C99A,≤ -4.2
4,A47G C93U,-0.775
5,G48U C118A,-0.303
6,A47G C87G C103U A110G,≤ -4.2
7,G48C G59U G94A A119U,-1.58
8,G50A U145A,-0.516
9,A47G G50C U53A A97U G124C,≤ -4.2
10,G50A C54A C87A G128A,≤ -4.2
11,A49C G50C G71A U90C C93G G117U C123G,≤ -4.2
12,G48C U61A C93U U151A,≤ -4.2
13,A49G C63U C85U,-0.955
14,A49C C54U C69A G94A U151C,≤ -4.2
15,G48A U55G C85G C87G C149G,≤ -4.2
16,G50C U53A,-3.26
17,A49G C93A G100A,≤ -4.2
18,G50C G94U A121U G128U,≤ -4.2
19,G48U U135C G143C,-3.78
20,A49G A91U G124U G141C U148G,≤ -4.2
21,A49G U61A G71A U90C G94A A119G,≤ -4.2

row,Variant,polymerase ribozyme fitness (log ratio)
1,G48A C75G U78C,≤ -4.2
2,A49U C85U U148A,≤ -4.2
3,G48C G84A G143A,-2.38
4,A47G G94U A147G,≤ -4.2
5,G48C A89C,-0.506
6,A47G C85U,-1.36
7,A49U U56G C57U C96U U102G,-1.32
8,G50A G83C U144A,-2.07
9,A49C C87U U151G,≤ -4.2
10,A49U G59U,-0.317
11,A49G G92C,-2.39
12,A49G G92A,-3.9
13,G50C G83C G94A C132U U135C A142U,≤ -4.2
14,A49C U148A,≤ -4.2
15,G50C A66C C79G C93U C95U U139C A147U,≤ -4.2
16,A47U C103G A115G G140C,≤ -4.2
17,A49U C75A A91G,-4.15
18,G48U C93U C95A A97G A98U G117C,-3.43
19,G50C C75G,≤ -4.2
20,G48C A52G,-1.29
21,G50C A52C C118G,-3.55

row,Variant,polymerase ribozyme fitness (log ratio)
1,A47G U55A A89C C95U U146A,-1.95
2,G50A C95G A115U,≤ -4.2
3,G50A G74C C87A U144C U151C,≤ -4.2
4,A49G A119C,-0.604
5,A49C C87A C95A C123A,≤ -4.2
6,A47U C93U C96U G152A,-3.95
7,G50A C116U A121U C132U U144G,-1.82
8,A49C A91C,≤ -4.2
9,A49U U56A C75U C108A U111G U146G,≤ -4.2
10,A47G U102A,-0.825
11,G50A A150G,-3.11
12,G50A C75G U90G U111C C123G U139A U144C,≤ -4.2
13,A49U G50U U53G A106U A122G,≤ -4.2
14,A49G C85U,-0.982
15,A49G C85A,-2.52
16,G48C A89U A106U A107C A120G U139G,≤ -4.2
17,A49C G58C A106C U109A C114A,≤ -4.2
18,G50C C93G C99G G126U,≤ -4.2
19,A49G A91G G92U A138U U144C,≤ -4.2
20,A49G C93A,-3.6
